Experimental data from patent US20250154238A1, “METHODS AND COMPOSITIONS FOR TREATING AND PREVENTING FIBROSIS” (YALE UNIVERSITY, priority 2022, published 2025).
Entries after “also recorded” stand apart in the source; their conditions may differ.

What was measured:
[1] = molecular target: T1, recombinant human epiregulin (rhEreg) (Homo sapiens, UniProt O14944); test: Inhibition of epiregulin-induced proliferation of human foreskin fibroblasts (CyQUANT); type: cell-based; conditions: rhEreg 100 ng/ml
T1 construct: recombinant human epiregulin containing the epidermal growth factor (EGF) domain; purchased R&D Biosciences 1195-EP
T1 sequence (O14944 63-108 limits assumed): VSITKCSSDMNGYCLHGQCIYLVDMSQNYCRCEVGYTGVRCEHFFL
Description: Human foreskin fibroblasts (HFFs) were incubated with recombinant human epiregulin (rhEreg) in Dulbecco's Modified Eagle Medium (DMEM) containing 1% fetal bovine serum (FBS), n=3 per rhEreg concentration (left panel). HFF were incubated in media containing rhEreg 100 ng/ml along with commercially available rat anti-human/mouse epiregulin antibody (middle panel) or hEreg NAb1 (right panel), n=4 (middle panel), n=6 (right panel) per antibody concentration. Data points show mean and standard error, which were fit by interpolating from a sigmoidal standard curve. Proliferation was measured by green fluorescence protein (GFP) fluorescence at day 3 using CyQUANT Direct Cell Proliferation Assay (Invitrogen) on Synergy HTX plate reader (Biotek).
To gauge their ability to inhibit epiregulin, whether the two unique antibodies produced by the hybridoma clones could inhibit recombinant epiregulin protein in vitro was tested. Characteristic of other EGFR ligands, recombinant human epiregulin (same as used for Alloy mouse immunization) induced proliferation of cultured human foreskin fibroblasts (HFF, ATCC #SCRC-1041) (FIG. 5, left panel). Maximal proliferation occurred at 100 ng/ml, so this concentration was used in subsequent inhibition experiments. […]

[2] = molecular target: T2, recombinant mouse epiregulin (rmEreg) (Mus musculus, UniProt Q61521); test: Inhibition of HFF proliferation induced by mouse epiregulin; type: cell-based; conditions: rmEreg 100 ng/ml
T2 sequence (Q61521 56-101 limits assumed): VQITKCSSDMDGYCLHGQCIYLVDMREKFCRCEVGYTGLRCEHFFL
Description: HFF were incubated with recombinant mouse epiregulin (rmEreg) for 3 days (left panel). HFF were incubated in media containing rmEreg 100 ng/ml along with rat anti-human/mouse epiregulin antibody (middle panel) or hEreg NAb1 (right panel), n=4 (middle panel), n=6 (right panel) per antibody concentration. Data points show mean and standard error, which were fit by interpolating from a sigmoidal standard curve.
In order to validate the humanized antibody in mouse models of fibrosis, it was necessary to establish whether it cross-reacted with the mouse epiregulin homologue. To setup the assay, if recombinant mouse epiregulin could induce HFF proliferation was tested first, which it did similar to the human protein (FIG. 7, left panel). […] In contrast, hEreg NAb1 required >100-fold higher concentration to inhibit HFF proliferation by mouse epiregulin protein (FIG. 7, right panel). […] These findings are likely due to raising the humanized antibody in mice, which would negatively select out B cells that produce a self-reactive antibody.

[3] = molecular target: T3, full-length epiregulin protein (Homo sapiens, UniProt O14944); test: HFF growth with increasing antibody in the absence of exogenous EGFR ligands; type: cell-based; conditions: increasing antibody concentrations, no exogenous EGFR ligands
T3 construct: Cultured HFF expressed endogenous full-length epiregulin; endogenous in cells; host or cells: human foreskin fibroblasts (HFF, ATCC #SCRC-1041)
T3 sequence (O14944 63-169): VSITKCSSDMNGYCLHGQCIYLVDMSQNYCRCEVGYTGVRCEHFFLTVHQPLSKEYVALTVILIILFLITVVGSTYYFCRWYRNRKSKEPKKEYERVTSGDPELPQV
Description: HFF were incubated with increasing concentrations of hEreg NAb1 in the absence of exogenous epidermal growth factor receptor (EGFR) ligands.
To gauge their ability to inhibit epiregulin, whether the two unique antibodies produced by the hybridoma clones could inhibit recombinant epiregulin protein in vitro was tested. Characteristic of other EGFR ligands, recombinant human epiregulin (same as used for Alloy mouse immunization) induced proliferation of cultured human foreskin fibroblasts (HFF, ATCC #SCRC-1041) (FIG. 5, left panel). Maximal proliferation occurred at 100 ng/ml, so this concentration was used in subsequent inhibition experiments. The ability of hEreg NAb1 and a commercially available rat anti-human/mouse neutralizing epiregulin antibody (R&D Systems MAB1068) to inhibit epiregulin-induced HFF proliferation was then compared. […] Cultured HFF expressed endogenous full-length epiregulin, but little to no other EGFR ligands. If HFF depend on the expression of epiregulin for growth and survival, inhibition of the endogenously produced protein should reduce their growth. […] Thus, hEreg NAb1 inhibits both the recombinant and full-length human epiregulin proteins.

[4] = test system: skin biopsies from two patients with sGvHD; test: Sclerotic GvHD patient skin explants, fibrosis protein markers in supernatant by ELISA; type: cell-based, human; conditions: 2.5 mg/ml, 10 days
Description: Paired skin biopsies from right arm and left abdomen of two patients with sGvHD were incubated with 2.5 mg/ml hEreg NAb1 or isotype control IgG1 antibody for 10 days. (FIG. 21A) Photos of patient fibrotic skin. (FIGS. 21B-21C) Media was changed every 48 hours and the level of fibrosis protein markers in the supernatant was quantified by ELISA (Abcam kits ab213831, ab210966, ab219046, ab187394, ab179886).
It was then investigated whether hEreg NAb1 could reduce fibrosis similar to the epiregulin neutralizing rat antibody. To investigate whether hEreg NAb1 reduces fibrosis protein markers, hEreg NAb1 was tested on skin biopsies from two patients with the fibrotic form of graft-vs-host disease (sGvHD). Patient I was a person 3 years post stem cell transplant from matched unrelated donor for treatment of myelodysplastic syndrome not on any immunosuppressive therapies. Patient 2 was a person 3 years post stem cell transplant from matched unrelated donor for treatment of acute myelogenous leukemia not on any immunosuppressive therapies. Paired 4 mm skin biopsies from the most affected skin of the right arm of patient 1 and left abdomen of patient 2 were obtained (FIG. 21A). Skin explants were incubated with 2.5 mg/ml hEreg NAb1 or isotype control IgG1 antibody for 10 days.

other EGFR ligands = test: Rescue of HFF growth by other EGFR ligands in presence of hEreg NAb1; type: cell-based, human; conditions: 5 mg/ml hEreg NAb1; recombinant EGFR ligands 0.1, 1, 10 ng/ml; 3 days
Description: HFF were incubated with 5 mg/ml hEreg NAb1 alone and recombinant EGFR ligands at 0.1 ng/ml. 1 ng/ml, and 10 ng/ml for 3 days prior to quantification.
Next it was considered whether hEreg NAb1 could inhibit other EGFR ligands (commercially available from R&D Systems). HFF was incubated with 5 mg/ml of hEreg NAb1 alone, which as discussed above, inhibits epiregulin-driven growth of HFF. Whether addition of the other six EGFR ligands could rescue HFF growth through their activation of EGFR was tested. Compared to the hEreg NAb1 alone control, the lowest concentration tested of each EGFR ligand, 0.1 ng/ml, was sufficient to rescue HFF growth (FIG. 8).

[5] = skin explants from either patient

B1: hEreg NAb1: humanized epiregulin neutralizing antibody from hybridoma wells M3-5; VH SEQ ID NO: 1, VL SEQ ID NO: 6 (antibody, V domains shown)
VH: HLQLQESGPGLVKSSETLSLTCSVSGGSISSSGYYWGWIRQPPGKGLEWIGSFYYSGNTYYNPSLKSRVTISADTSKSQYSLKLSSVTAADTAVYYCARHPFNWNDHYHYMDVWGNGTTVTVSS
VL: DIQMTQSPSSLSASVGDSVTITCRASQSISNYLNWYQKKPGKAPKVLIYAASSLQSGVPSRFSGSGSGTDFTLTISSLQPEDFATYYCQQSYITSITFGQGTRLEIK
inhibition of human epiregulin-induced HFF proliferation ([1]; 3 days): inhibited HFF proliferation in a concentration-dependent manner; also recorded: inhibits
IC50, inhibition of epiregulin-induced HFF proliferation ([1]; day 3): 0.1 to 0.3 µg/mL
cross-reactivity for mouse epiregulin protein ([2]; HFF proliferation): little cross-reactivity; also recorded: low cross-reactivity
fold higher concentration required to inhibit HFF proliferation by mouse epiregulin protein ([2]; HFF): > 100 fold
HFF growth / inhibition of endogenous full-length epiregulin [3]: decreased growth was observed; also recorded: inhibits full-length epiregulin protein
fibrosis markers in sclerotic GvHD skin explants ([4]; vs isotype control IgG1): reduces fibrosis markers
MCP-1 in supernatant vs IgG1 isotype control ([4]; patient 1, right arm): significantly reduced expression
TIMP1 in supernatant vs IgG1 isotype control ([4]; patient 1, right arm): significantly reduced expression
TNC in supernatant vs IgG1 isotype control ([4]; patient 1, right arm): significantly reduced expression
TNC in supernatant vs IgG1 isotype control ([4]; patient 2, left abdomen): significant reduction
fibronectin (FN) expression [4, 5]: did not reduce expression
pro-collagen I alpha 1/pro-collagen I N-terminal propeptide (PINP) expression [4, 5]: did not reduce expression
cross-reactivity with / neutralization of other EGFR ligands (other EGFR ligands): does not cross-react; also recorded: does not neutralize
